Data reported in PMC10807245, “A functional and structural comparative analysis of large tumor antigens reveals evolution of different importin α‐dependent nuclear localization signals” (Protein Science : A Publication of the Protein Society, 2024).
Primed or numbered codes have the meaning given here. Where no end group is shown, it is not given here. FITC′ = fluorescein isothiocyanate; Ahx = NCCCCCC(=O)O

B1: JCPyV LTA NLS peptide (peptide)
peptide: {FITC′-Ahx}-MFASDDENTGSQHSTPPKKKKKV
notes: also called JCPyV LTA cNLS; JCPyV LTA monopartite cNLS
B2: STLPyV LTA NLSbip peptide (peptide)
peptide: {FITC′-Ahx}-KRKFPDSSTQNSTPPKKNKPA
notes: also called STLPyV LTA cNLS; STLPyV LTA bipartite cNLS
B3: MWPyV LTA NLSbip peptide (peptide)
peptide: {FITC′-Ahx}-PKKRPRESSSNSTCTPPKRPRNF
notes: also called MWPyV LTA cNLS; MWPyV LTA bipartite cNLS
B4: KIPyV LTA NLSbip peptide (peptide)
peptide: {FITC′-Ahx}-KRSAPEEEPSCSQATPPKKKHA
notes: also called KIPyV LTA cNLS; KIPyV LTA bipartite cNLS
B5: MCPyV LTA NLSbip peptide (peptide)
peptide: {FITC′-Ahx}-PFSRKRKFGGSRSSASSASSASFTSTPPKPKKNRE
notes: also called MCPyV LTA cNLS; bipartite MCPyV LTA NLS; source: synthetic peptide (solid phase, HPLC purified)
B6: WUPyV LTA NLSbip peptide (peptide)
peptide: {FITC′-Ahx}-KRTREDDEEPQCSQATPPKKKKD
notes: also called WUPyV LTA cNLS; WUPyV LTA bipartite cNLS

target: T1, mouse importin α2 lacking the IBB domain (IMPα2ΔIBB) (mouse, UniProt P52293 70-529); test: crystal structure; conditions: both partners purified

Binder | binding result
B1 | binds

target: T2, human importin α3 lacking the IBB domain (IMPα3ΔIBB) (human, UniProt O00629 64-521); test: native gel or EMSA; 1.5% agarose gel in TB buffer (0.45 mM tris, 0.45 mM boric acid, pH 8.5), 70 V for 2 h; IMPαΔIBB ± FITC-cNLS peptide; UV image for the peptide, Coomassie for the protein; conditions: both partners purified
T2 sequence (looked up): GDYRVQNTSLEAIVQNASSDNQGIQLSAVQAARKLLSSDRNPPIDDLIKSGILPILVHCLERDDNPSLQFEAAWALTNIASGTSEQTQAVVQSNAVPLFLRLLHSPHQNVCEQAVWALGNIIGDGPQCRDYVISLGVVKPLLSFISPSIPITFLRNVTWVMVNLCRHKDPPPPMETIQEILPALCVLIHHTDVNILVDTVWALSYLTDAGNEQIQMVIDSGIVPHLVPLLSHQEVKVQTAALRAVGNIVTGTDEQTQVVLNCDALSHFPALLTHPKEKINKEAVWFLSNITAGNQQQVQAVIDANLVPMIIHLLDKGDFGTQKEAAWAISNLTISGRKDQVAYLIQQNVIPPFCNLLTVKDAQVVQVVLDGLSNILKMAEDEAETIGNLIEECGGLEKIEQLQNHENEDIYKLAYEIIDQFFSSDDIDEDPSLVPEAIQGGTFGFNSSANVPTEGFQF

Binder | binding result
B1 | binds
B2 | binds
B3 | binds
B4 | binds
B5 | binds
B6 | binds

target: human importin α7 lacking the IBB domain (IMPα7ΔIBB) (human, UniProt O60684 73-536); test: as above; conditions: both partners purified
Sequence (O60684 73-536, stated change not applied): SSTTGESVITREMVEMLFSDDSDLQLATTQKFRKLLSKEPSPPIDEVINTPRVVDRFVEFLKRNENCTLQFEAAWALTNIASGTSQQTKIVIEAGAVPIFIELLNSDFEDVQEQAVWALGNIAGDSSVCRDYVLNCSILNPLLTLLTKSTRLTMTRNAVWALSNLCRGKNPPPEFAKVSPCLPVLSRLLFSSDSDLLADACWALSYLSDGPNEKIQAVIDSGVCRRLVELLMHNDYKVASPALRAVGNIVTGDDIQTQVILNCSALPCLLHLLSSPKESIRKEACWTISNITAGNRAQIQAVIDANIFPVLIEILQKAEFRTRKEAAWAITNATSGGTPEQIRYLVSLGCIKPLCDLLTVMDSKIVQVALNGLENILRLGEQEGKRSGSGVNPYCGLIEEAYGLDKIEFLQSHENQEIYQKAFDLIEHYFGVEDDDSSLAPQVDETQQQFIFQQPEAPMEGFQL

Binder | binding result
B1 | binds
B2 | binds
B3 | binds
B4 | binds
B5 | binds
B6 | binds

target: T3, human importin α1 lacking the IBB domain (IMPα1ΔIBB) (human, UniProt P52292 70-529); test: as above; conditions: both partners purified

Binder | binding result
B2 | binds
B3 | binds
B4 | binds
B5 | binds
B6 | binds

target: T1, mouse importin α2 lacking the IBB …; test: as above; conditions: both partners purified

Binder | binding result
B2 | binds
B3 | binds
B4 | binds
{FITC′}-PFSRKRKFGGS [MCPyV LTA NLSm peptide] | binds
B5 | binds
B6 | binds

target: human importin α5 lacking the IBB domain (IMPα5ΔIBB) (human, UniProt P52294 73-538); test: as above; conditions: both partners purified
Sequence (P52294 73-538, stated change not applied): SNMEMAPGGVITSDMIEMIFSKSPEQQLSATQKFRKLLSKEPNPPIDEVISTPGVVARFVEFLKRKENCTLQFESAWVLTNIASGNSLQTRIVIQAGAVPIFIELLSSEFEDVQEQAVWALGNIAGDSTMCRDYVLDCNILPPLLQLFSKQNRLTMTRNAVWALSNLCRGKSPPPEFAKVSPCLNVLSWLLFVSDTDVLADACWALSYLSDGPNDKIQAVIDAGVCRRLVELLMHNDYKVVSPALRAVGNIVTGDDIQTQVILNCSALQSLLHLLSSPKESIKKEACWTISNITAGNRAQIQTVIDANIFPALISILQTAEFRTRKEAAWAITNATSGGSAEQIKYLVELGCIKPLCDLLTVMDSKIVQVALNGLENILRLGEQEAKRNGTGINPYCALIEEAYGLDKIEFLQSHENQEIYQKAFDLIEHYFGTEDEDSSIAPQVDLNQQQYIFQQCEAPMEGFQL

Binder | binding result
B1 | binds
B2 | binds
B3 | binds
B4 | binds
B5 | binds
B6 | binds

target: T3, human importin α1 lacking the IBB …; test: fluorescence polarisation; two-fold dilutions of IMPαΔIBB titrated against FITC-cNLS peptide in tris-buffered saline, 200 μL; one site specific binding fit; triplicate; conditions: both partners purified

Binder | Kd [nM]
B1 | 76 to 270
